In the supplement of paper PMC11246515:
± gives the standard deviation of the averaged measurements.

Experiment: total protein half-life in vivo (active degradation + dilution); higher = more stable protein
[1] = E. coli NCM3722 delta-clpP delta-lon delta-hslV, growth: N-lim chemostat, doubling time 6 h
[2] = E. coli NCM3722 delta-clpP, growth: N-lim chemostat, doubling time 6 h
[3] = E. coli NCM3722 delta-lon, growth: N-lim chemostat, doubling time 6 h
[4] = E. coli NCM3722 delta-smpB, growth: N-lim chemostat, doubling time 6 h
[5] = wild type E. coli NCM3722, growth: C-lim chemostat, doubling time 3 h
[6] = wild type E. coli NCM3722, growth: C-lim chemostat, doubling time 6 h
[7] = wild type E. coli NCM3722, growth: C-lim chemostat, doubling time 12 h
[8] = wild type E. coli NCM3722, growth: N-lim chemostat, doubling time 6 h
[9] = wild type E. coli NCM3722, growth: N-lim chemostat, doubling time 12 h
[10] = wild type E. coli NCM3722, growth: P-lim chemostat, doubling time 6 h
[11] = wild type E. coli NCM3722, growth: P-lim chemostat, doubling time 12 h
[12] = E. coli NCM3722 delta-hslV, growth: N-lim chemostat, doubling time 6 h

Sequence | total protein half-life in vivo [1] [h] | total protein half-life in vivo [2] [h] | total protein half-life in vivo [3] [h] | total protein half-life in vivo [4] [h] | total protein half-life in vivo [5] [h] | total protein half-life in vivo [6] [h] | total protein half-life in vivo [7] [h] | total protein half-life in vivo [8] [h] | total protein half-life in vivo [9] [h] | total protein half-life in vivo [10] [h] | total protein half-life in vivo [11] [h] | total protein half-life in vivo [12] [h]
MFTKRHRITLLFNANKAYDRQVVEGVGEYLQASQSEWDIFIEEDFRARIDKIKDWLGDGVIADFDDKQIEQALADVDVPIVGVGGSYHLAESYPPVHYIATDNYALVESAFLHLKEKGVNRFAFYGLPESSGKRWATEREYAFRQLVAEEKYRGVVYQGLETAPENWQHAQNRLADWLQTLPPQTGIIAVTDARARHILQVCEHLHIPVPEKLCVIGIDNEELTRYLSRVALSSVAQGARQMGYQAAKLLHRLLDKEEMPLQRILVPPVRVIERRSTDYRSLTDPAVIQAMHYIRNHACKGIKVDQVLDAVGISRSNLEKRFKEEVGETIHAMIHAEKLEKARSLLISTTLSINEISQMCGYPSLQYFYSVFKKAYDTTPKEYRDVNSEVML [P0ACI3] | 5.66 ± 0.54 | 5.86 ± 0.86 | 3.81 ± 0.22 | 3.05 ± 0.42 | 2.89 ± 0.14 | 5.27 ± 0.069 | 9.26 ± 0.14 | 3.78 ± 0.56 | 4.44 ± 1.1 | 5.4 ± 0.33 | 9.78 ± 0.94 | 
MHHATPLITTIVGGLVLAFILGMLANKLRISPLVGYLLAGVLAGPFTPGFVADTKLAPELAELGVILLMFGVGLHFSLKDLMAVKAIAIPGAIAQIAVATLLGMALSAVLGWSLMTGIVFGLCLSTASTVVLLRALEERQLIDSQRGQIAIGWLIVEDLVMVLTLVLLPAVAGMMEQGDVGFATLAVDMGITIGKVIAFIAIMMLVGRRLVPWIMARSAATGSRELFTLSVLALALGVAFGAVELFDVSFALGAFFAGMVLNESELSHRAAHDTLPLRDAFAVLFFVSVGMLFDPLILIQQPLAVLATLAIILFGKSLAAFFLVRLFGHSQRTALTIAASLAQIGEFAFILAGLGMALNLLPQAGQNLVLAGAILSIMLNPVLFALLEKYLAKTETLEEQTLEEAIEEEKQIPVDICNHALLVGYGRVGSLLGEKLLASDIPLVVIETSRTRVDELRERGVRAVLGNAANEEIMQLAHLECAKWLILTIPNGYEAGEIVASARAKNPDIEIIARAHYDDEVAYITERGANQVVMGEREIARTMLELLETPPAGEVVTG | 7.0037 ± 0.0035 | 6.7 ± 0.41 | 6.24 ± 1.1 | 6.31 ± 0.61 | > 4 | 5.87 ± 0.64 |  | 5.84 ± 0.9 | 12.7 ± 0.69 | 6.44 ± 0.68 | 12.6 ± 0.86 | 6.3 ± 0.52
MANFFIDRPIFAWVLAILLCLTGTLAIFSLPVEQYPDLAPPNVRVTANYPGASAQTLENTVTQVIEQNMTGLDNLMYMSSQSSGTGQASVTLSFKAGTDPDEAVQQVQNQLQSAMRKLPQAVQNQGVTVRKTGDTNILTIAFVSTDGSMDKQDIADYVASNIQDPLSRVNGVGDIDAYGSQYSMRIWLDPAKLNSFQMTAKDVTDAIESQNAQIAVGQLGGTPSVDKQALNATINAQSLLQTPEQFRDITLRVNQDGSEVRLGDVATVEMGAEKYDYLSRFNGKPASGLGVKLASGANEMATAELVLNRLDELAQYFPHGLEYKVAYETTSFVKASIEDVVKTLLEAIALVFLVMYLFLQNFRATLIPTIAVPVVLMGTFSVLYAFGYSVNTLTMFAMVLAIGLLVDDAIVVVENVERIMSEEGLTPREATRKSMGQIQGALVGIAMVLSAVFVPMAFFGGTTGAIYRQFSITIVAAMVLSVLVAMILTPALCATLLKPLKKGEHHGQKGFFAWFNQMFNRNAERYEKGVAKILHRSLRWIVIYVLLLGGMVFLFLRLPTSFLPLEDRGMFTTSVQLPSGSTQQQTLKVVEQIEKYYFTHEKDNIMSVFATVGSGPGGNGQNVARMFIRLKDWSERDSKTGTSFAIIERATKAFNQIKEARVIASSPPAISGLGSSAGFDMELQDHAGAGHDALMAARNQLLALAAENPELTRVRHNGLDDSPQLQIDIDQRKAQALGVAIDDINDTLQTAWGSSYVNDFMDRGRVKKVYVQAAAPYRMLPDDINLWYVRNKDGGMVPFSAFATSRWETGSPRLERYNGYSAVEIVGEAAPGVSTGTAMDIMESLVKQLPNGFGLEWTAMSYQERLSGAQAPALYAISLLVVFLCLAALYESWSVPFSVMLVVPLGVIGALLATWMRGLENDVYFQVGLLTVIGLSAKNAILIVEFANEMNQKGHDLFEATLHACRQRLRPILMTSLAFIFGVLPMATSTGAGSGGQHAVGTGVMGGMISATILAIYFVPLFFVLVRRRFPLKPRPE |  | 6.56 ± 0.62 | 6.05 ± 0.57 | 5.38 ± 0.37 |  |  | 12 ± 2.9 | 6.06 ± 0.82 | 12.3 ± 0.86 | 6.36 ± 0.17 |  | 6.24 ± 0.45
MNNNDLVAKLWKLCDNLRDGGVSYQNYVNELASLLFLKMCKETGQEAEYLPEGYRWDDLKSRIGQEQLQFYRKMLVHLGEDDKKLVQAVFHNVSTTITEPKQITALVSNMDSLDWYNGAHGKSRDDFGDMYEGLLQKNANETKSGAGQYFTPRPLIKTIIHLLKPQPREVVQDPAAGTAGFLIEADRYVKSQTNDLDDLDGDTQDFQIHRAFIGLELVPGTRRLALMNCLLHDIEGNLDHGGAIRLGNTLGSDGENLPKAHIVATNPPFGSAAGTNITRTFVHPTSNKQLCFMQHIIETLHPGGRAAVVVPDNVLFEGGKGTDIRRDLMDKCHLHTILRLPTGIFYAQGVKTNVLFFTKGTVANPNQDKNCTDDVWVYDLRTNMPSFGKRTPFTDEHLQPFERVYGEDPHGLSPRTEGEWSFNAEETEVADSEENKNTDQHLATSRWRKFSREWIRTAKSDSLDISWLKDKDSIDADSLPEPDVLAAEAMGELVQALSELDALMRELGASDEADLQRQLLEEAFGGVKE | 5.68 ± 0.29 | 4.9709 ± 0.0002 | 4.72 ± 0.37 | 4.17 ± 0.28 | 2.586 ± 0.0099 | 5.252 ± 0.027 | 9.58 ± 1 | 4.476 ± 0.014 | 7.36 ± 0.36 | 5.18 ± 0.24 | 10.5 ± 0.66 | 4.85 ± 0.48
MRLCDRDIEAWLDEGRLSINPRPPVERINGATVDVRLGNKFRTFRGHTAAFIDLSGPKDEVSAALDRVMSDEIVLDEGEAFYLHPGELALAVTLESVTLPADLVGWLDGRSSLARLGLMVHVTAHRIDPGWSGCIVLEFYNSGKLPLALRPGMLIGALSFEPLSGPAVRPYNRREDAKYRNQQGAVASRIDKD | 3.92 ± 0.54 | 3.36 ± 0.25 | 4.56 ± 1.7 | 3.14 ± 0.53 | 2.852 ± 0.011 | 4.81 ± 0.3 | 7.69 ± 0.16 | 3.17 ± 0.19 | 4.96 ± 0.52 | 5.25 ± 0.11 | 10.4 ± 0.19 | 3.062 ± 0.021
